One experiment has as its system p42/p44 MAP-Kinase. The experiment can be described thus: p42/p44 MAP-Kinase phosphorylation ELISA, rat versus chimeric antibody. In kind it is cell-based, human. Particulars: 50 ng/ml to 10 μg/ml antibody, 400 ng/ml Gas6; CaSki. As to the method: To additionally verify whether the rat anti-Axl antibodies of the invention and the corresponding chimeric anti-Axl antibodies of the invention were also able to inhibit Gash-induced activation of p42/p44 MAP-Kinase in CaSki cervical cancer cells to similar extent, ELISA experiments were performed. Here, Gas6-induced p42/p44 MAP-Kinase activation was detected by increased protein (Thr202/Tyr204) phosphorylation. In brief, on the first day, 2×10^4 cells per well were seeded in flat-bottom 96 well plates. The next day, normal growth medium was replaced by serum-free medium to starve cells for 24 h. Thereafter, cells were pre-incubated with 50 ng/ml, 100 ng/ml, 300 ng/ml, 750 ng/ml, 1 μg/ml, and 10 μg/ml of rat anti-Axl antibody 11B7 or chimeric anti-Axl antibody ch11B7 for 1 h at 37° C. and then treated with or without 400 ng/ml Gas6 (R&D Systems) for 10 min at 37° C. Medium was flicked out and cells were fixed with 4% formaldehyde in PBS (pH 7.5) for 30 min at room temperature. Formaldehyde solution was removed and cells were washed twice with wash buffer (PBS, 0.1% Tween 20). Cells were quenched with 1% H2O2, 0.1% NaN3 in wash buffer and incubated for 20 min at room temperature. […] Tetramethylbenzidine (TMB, Calbiochem) was added and monitored at 620 nm.

Experiment [1] concerns serum-starved NIH3T3-AXL cl.7 fibroblasts. Briefly: Caspase-3/7 assay, Gas6-mediated anti-apoptosis. In kind it is cell-based. The note with it: 10 μg/ml antibody, with or without 400 ng/ml Gas6, compared to isotypic control antibody. The text has this:
Induction of apoptosis and activation of caspases can result from a variety of stimuli including growth factor withdrawal, exposure to chemotherapeutic agents or radiation, or initiation of the Fas/Apo-1 receptor-mediated cell death process. […] In the present example we examined whether rat anti-AXL antibodies of the invention interfere with Gas6-mediated anti-apoptosis of serum-starved NIH3T3-AXL cl.7 fibroblasts, and thus induce apoptosis. Apoptosis rates were thereby determined by measurement of the cellular caspase-3/7 activity. For this purpose, NIH3T3-AXL cl.7 cells were seeded at a density of 1.5×10^3 cells per well in black clear-bottom 96 well plates (100 μl/well). The day after, normal growth medium was replaced by serum-reduced medium (DMEM, 0.5% FCS) to starve cells over night for 24 h. […] The cells were washed with PBS, covered with 60 μl of DMEM, 0% FCS, 0.01% BSA, and 10 μl of the respective antibody solution were added. After 1 h incubation at 37° C., 10 μl of DMEM, 0% FCS, 0.01% BSA with or without 3.2 μg/ml mouse Gas6 (R&D Systems) were added (the final concentrations of antibody and Gas6 were 10 μg/ml and 400 ng/ml, respectively), and cells were incubated at 37° C. for another 5 h. […] Using a Victor plate reader (Perkin Elmer), the fluorescence of each well was measured at an excitation wavelength of 485 nm and an emission wavelength of 530 nm.

A further experiment concerns C-8161 melanoma cells. Briefly: Soft agar colony formation assay, combination with cisplatin. The class given is cell-based, human. On the procedure:
Soft agar assays were conducted in order to investigate the ability of anti-Axl antibodies of the invention to inhibit anchorage-independent cell growth either alone or in combination with chemotherapeutic agents. The soft agar colony formation assay is a standard in vitro assay to test for transformed cells, as only transformed cells are able to grow in soft agar.
In brief, 750 C-8161 melanoma cells either remained untreated or were pre-incubated with the antagonistic rat anti-Axl antibody 11B7 at 15 μg/ml in IMDM medium (Gibco) for 30 min at 37° C. Subsequently, cells were combined with Difco noble agar solution resulting in 50 μl of top agar cell suspension at concentrations of Agar, FCS, and 11B7 of 0.35%, 0.2%, and 7.5 μg/ml, respectively. This cell suspension was plated on top of 50 μl of a 0.7% agarose bottom layer containing 20% FCS, and was finally covered with another 50 μl of a feeding layer solution that contains 0.2% FCS as well as cisplatin in according concentrations. In the whole of 150 μl per sample, the final concentrations of 11B7 and cisplatin were 2.5 μg/ml and 1.5 μM, 1.0 μM, 0.75 μM, 0.5 μM, or 0.25 μM, respectively. Colonies were allowed to form for 5 days and were then stained with 50 μl MTT (Sigma, 1 mg/ml in PBS) for 3 hours at 37° C. Using a Scanalyzer HTS camera system in conjunction with the HTS Bonit colony formation software (Lemnatec, Wuerselen), the effect of the antagonistic rat anti-Axl antibody 11B7 in the absence or presence of cisplatin were analyzed in triplicates.

B1: 11B7: antagonistic rat anti-AXL monoclonal antibody, rat IgG1 (antibody, V domains shown)
VL: DIQMTQAPSSLPASLGDRVTITCRASQDIGNYLRWFQQKPGKSPRLMISGATNLAAGVPSRFSGSRSGSDYSLTISSLESEDMADYYCLQSKESPWTFGGGTKLELK
VH: EVQLQESGPGLVKPSQSLSLTCSVTGYSITSNYWGWIRKFPGDKMEWMGYITYSGSTSYNPSLKSRISITRDTSKNQFFLQLNSVTSEDTATYYCAITTFYYWGQGVMVTVSS
Turning to B1, the “Gas6-induced p42/p44 MAP-Kinase activation, concentration-dependent” value with p42/p44 MAP-Kinase is recorded as “able to block Gas6-induced activation of p42/p44 MAP-Kinase in CaSki cervical cancer cells to similar extent”. The “anti-apoptosis (caspase-3/7 activity)” value in experiment [1] is listed as “reduced Gas6-mediated anti-apoptosis”. In addition, in the experiment on C-8161 melanoma cells (2.5 μg/ml 11B7 + 0.25 to 1.5 μM cisplatin, 5 days), the “soft agar colony growth, combination with cisplatin” value is listed as “significantly potentiated inhibitory effect of cisplatin”. Further, in the experiment with C-8161 melanoma cells (2.5 μg/ml 11B7, 5 days, overall area of colonies), the “inhibitory effect on soft agar colony growth, antibody alone” value is reported as roughly 30%.

For the origin of these results see patent US8933202B2, “AXL antibodies” (U3 Pharma GmbH, priority 2007, dated 2015).
